To fix the notation:
B1: soluble recombinant human αvβ6 (receptor)
chain 1: FNLDVDSPAEYSGPEGSYFGFAVDFFVPSASSRMFLLVGAPKANTTQPGIVEGGQVLKCDWSSTRRCQPIEFDATGNRDYAKDDPLEFKSHQWFGASVRSKQDKILACAPLYHWRTEMKQEREPVGTCFLQDGTKTVEYAPCRSQDIDADGQGFCQGGFSIDFTKADRVLLGGPGSFYWQGQLISDQVAEIVSKYDPNVYSIKYNNQLATRTAQAIFDDSYLGYSVAVGDFNGDGIDDFVSGVPRAARTLGMVYIYDGKNMSSLYNFTGEQMAAYFGFSVAATDINGDDYADVFIGAPLFMDRGSDGKLQEVGQVSVSLQRASGDFQTTKLNGFEVFARFGSAIAPLGDLDQDGFNDIAIAAPYGGEDKKGIVYIFNGRSTGLNAVPSQILEGQWAARSMPPSFGYSMKGATDIDKNGYPDLIVGAFGVDRAILYRARPVITVNAGLEVYPSILNQDNKTCSLPGTALKVSCFNVRFCLKADGKGVLPRKLNFQVELLLDKLKQKGAIRRALFLYSRSPSHSKNMTISRGGLMQCEELIAYLRDESEFRDKLTPITIFMEYRLDYRTAADTTGLQPILNQFTPANISRQAHILLDCGEDNVCKPKLEVSVDSDQKKIYIGDDNPLTLIVKAQNQGEGAYEAELIVSIPLQADFIGVVRNNEALARLSCAFKTENQTRQVVCDLGNPMKAGTQLLAGLRFSVHQQSEMDTSVKFDLQIQSSNLFDKVSPVVSHKVDLAVLAAVEIRGVSSPDHVFLPIPNWEHKENPETEEDVGPVVQHIYELRNNGPSSFSKAMLHLQWPYKYNNNTLLYILHYDIDGPMNCTSDMEINPLRIKISSLQTTEKNDTVAGQGERDHLITKRDLALSEGDIHTLGCGVAQCLKIVCQVGRLDRGKSAILYVKSLLWTETFMNKENQNHSYSLKSSASFNVIEFPYKNLPIEDITNSTLVTTNVTWGIQPAPMPV
chain 2: GCALGGAETCEDCLLIGPQCAWCAQENFTHPSGVGERCDTPANLLAKGCQLNFIENPVSQVEILKNKPLSVGRQKNSSDIVQIAPQSLILKLRPGGAQTLQVHVRQTEDYPVDLYYLMDLSASMDDDLNTIKELGSRLSKEMSKLTSNFRLGFGSFVEKPVSPFVKTTPEEIANPCSSIPYFCLPTFGFKHILPLTNDAERFNEIVKNQKISANIDTPEGGFDAIMQAAVCKEKIGWRNDSLHLLVFVSDADSHFGMDSKLAGIVIPNDGLCHLDSKNEYSMSTVLEYPTIGQLIDKLVQNNVLLIFAVTQEQVHLYENYAKLIPGATVGLLQKDSGNILQLIISAYEELRSEVELEVLGDTEGLNLSFTAICNNGTLFQHQKKCSHMKVGDTASFSVTVNIPHCERRSRHIIIKPVGLGDALELLVSPECNCDCQKEVEVNSSKCHHGNGSFQCGVCACHPGHMGPRCECGEDMLSTDSCKEAPDHPSCSGRGDCYCGQCICHLSPYGNIYGPYCQCDNFSCVRHKGLLCGGNGDCDCGECVCRSGWTGEYCNCTTSTDSCVSEDGVLCSGRGDCVCGKCVCTNPGASGPTCERCPTCGDPCNSKRSCIECHLSAAGQAREECVDKCKLAGATISEEEDFSKDGSVSCSLQGENECLITFLITTDNEGKTIIHSINEKDCPKPPNIP
notes: extracellular domain; also called hsαvβ6; soluble human truncated αvβ6
B2: 7.7G5 (antibody, V domains shown)
VH: EVQLQQSGPELVKPGASVKISCKASGYSFTGYFMNWVMQSHGKSLEWIGRIKPYNGDNFYNQKFMGKATLTVDKSSSTVHMELRSLASEDSAVYYCARDRYGTYGMDYWGQGTSVTVSS
VL: QIVLTQSPAIMSASPGEKVTMTCSASSSVSYMHWYQQKSGTSPKRWIYDTSKLASGVPTRFSGSGSGTSYSLTINSMEAEDAATYYCQQWSSHPPTFGAGTKLELK
notes: ATCC PTA-3899
B3: 7.1G10 (antibody, V domains shown)
VH: QVQLQQSGPELVKPGASVRISCKASGYTFTSYYIHWVKQRPGQGLEWIGWLYPGKINTRYNEKFKGKATLIADKSSSTAYMQLSSLTSEDSAVYFCARHVLNGNFDYWGQGTTLTVSS
VL: DIQMTQSPSSLSASLGERVSLTCRASQEISGYLSWLQQKPDGSIKRLIYAASTLDSGVPKRFSGSRSGADYSLTISSLESEDFADYYCLQYATYPYTFGGGTKLEIK
notes: ATCC PTA-3898

The target of one experiment is T1, 6.3G9.
T1 construct: ATCC PTA-3649; also called biotinylated 6.3G9
Nature of the experiment: KinExA: soluble αvβ6 titrated against 1e-10 M antibody, free antibody caught on integrin-coated beads. The protocol: A series of dilutions of the soluble integrin (1×10⁻⁸ M to 2.4×10⁻¹² M) were incubated with 1×10⁻¹⁰ M of the antibody for 3 h. These samples were then passed through polymethylmethacrylate beads coated with the integrin using a KinExA instrument (Sapidyne Instruments, Inc., Boise, Id.). In the case of 6.8G6, 11 mM CaCl₂ and […] MgCl₂ were included in the incubation and assay buffers. The amounts of bound and free antibody were determined using a Cy5-labeled anti-mouse secondary antibody. Quadratic curve fitting was performed using the KinExA software to attain a dissociation constant (Kd) for each interaction. […] Thus, both of these antibodies had very high affinities for αᵥβ₆.
On the technique in general: A kinetic exclusion assay measures how much of one partner remains free in solution.

Experiment [1] concerns the target T2, αvβ6 on β6-transfected FDC-P1 cells (murine, UniProt P43406 31-1044; Q9Z0T9 22-787).
T2 construct: whole, on cells; αv is that of the murine host cell line; also called β6-FDC-P1 cells; β6-transfected murine cells
The experiment can be described thus: β6-FDC-P1 cells to coated LAP, blocking. The protocol: A 96-well microtiter plate was coated with 50 μl/well of 0.5 μg/ml recombinant human LAP (R&D Systems) diluted in 50 mM sodium bicarbonate, pH 9.2 at 4° C. overnight. The plate was washed twice with PBS (100 μl/well) and blocked with 1% BSA in PBS (100 μl/well) for 1 hr at 25° C. The plate was washed twice with 100 μl/well of assay buffer (TBS complete plus 1 mM CaCl₂ and 1 mM MgCl₂). Next, to the individual wells of the plate were added 25 μl of a hybridoma supernatant (or a purified antibody) and 25 μl of β₆-FDC-P1 cells (5×10⁶ cells/ml, labeled with Calcein AM as described above). The plate was incubated at 25° C. for 1 hr, and then washed 4-6 times with the assay buffer (100 μl/well). The fluorescence emitted from cells captured on the plate was recorded. Percentage binding was determined by comparing the fluorescence signal prior to the final wash step (i.e., total cells added) to that after washing (i.e., bound cells).

Experiment [2] addresses αvβ6 on β6-transfected SW480 cells (UniProt P06756 31-1048; P18564 22-788). The experiment can be described thus: cell-based or functional assay.
The target in experiment [3] is B1. Nature of the experiment: ELISA, coated hsαvβ6. The procedure:
A 96-well microtiter plate (Corning COSTAR EASY-WASH) was coated with 50 μl/well of 5 μg/ml hsαᵥβ₆ at 4° C. overnight. The plate was washed with wash buffer (0.1% TWEEN-20 in PBS) four times in an automated plate washer. Then 180 μl/well of 3% BSA in TBS was added and incubated for 1 hr at 25° C. to block nonspecific binding. The plate was washed as above, and dilutions of either hybridoma supernatant (for screening assays) or purified antibody (for characterization) in TBS containing 1 mg/ml BSA, 1 mM CaCl₂, and 1 mM MgCl₂ were added (50 μl/well). The plate was incubated for 1 hr at 25° C., washed, and then incubated for 1 hr with 50 μl/well of […] goat anti-mouse IgG+A+M antibody (Cappel). Bound antibody was detected using 3,3′,5,5′-tetramethylbenzidine (TMB). Binding was indicated by the absorbency measured at 450 nm.
For orientation: ELISA stands for enzyme-linked immunosorbent assay.

Experiment [4] has as its target B1. Nature of the experiment: biotin-hsαvβ6 to coated LAP, blocking. The procedure: 96-well microtiter plates (Corning COSTAR EASY-WASH) were coated with 0.3 μg/ml recombinant human LAP (R&D Systems, Cat. # 246-LP) diluted in PBS (50 μl/well) at 4° C. overnight. After the coating solution was removed, the plates were blocked with 180 μl/well of 3% BSA/TBS at 25° C. for 1 hr. […] After washing the LAP-coated plate with wash buffer (0.1% TWEEN-20 in PBS) 4 times in an automated plate washer, 100 μl of the antibody-αᵥβ₆ mixture was transferred to the plate, and incubated for 1 hr at 25° C. The plate was washed as above and incubated with 50 μl/well of a 1:1000 dilution of extravidin-horseradish peroxidase conjugate (Sigma) in TBS (1 mg/ml BSA) for 1 hr at 25° C. Bound protein was detected using the TMB substrate.
The purified antibodies were next evaluated for their ability to inhibit the αᵥβ₆-LAP interaction.

The text below walks through data of patent publication US20090186036A1 (Biogen, published 2009).

T2 sequence (P43406 31-1044, chain 1 of 2): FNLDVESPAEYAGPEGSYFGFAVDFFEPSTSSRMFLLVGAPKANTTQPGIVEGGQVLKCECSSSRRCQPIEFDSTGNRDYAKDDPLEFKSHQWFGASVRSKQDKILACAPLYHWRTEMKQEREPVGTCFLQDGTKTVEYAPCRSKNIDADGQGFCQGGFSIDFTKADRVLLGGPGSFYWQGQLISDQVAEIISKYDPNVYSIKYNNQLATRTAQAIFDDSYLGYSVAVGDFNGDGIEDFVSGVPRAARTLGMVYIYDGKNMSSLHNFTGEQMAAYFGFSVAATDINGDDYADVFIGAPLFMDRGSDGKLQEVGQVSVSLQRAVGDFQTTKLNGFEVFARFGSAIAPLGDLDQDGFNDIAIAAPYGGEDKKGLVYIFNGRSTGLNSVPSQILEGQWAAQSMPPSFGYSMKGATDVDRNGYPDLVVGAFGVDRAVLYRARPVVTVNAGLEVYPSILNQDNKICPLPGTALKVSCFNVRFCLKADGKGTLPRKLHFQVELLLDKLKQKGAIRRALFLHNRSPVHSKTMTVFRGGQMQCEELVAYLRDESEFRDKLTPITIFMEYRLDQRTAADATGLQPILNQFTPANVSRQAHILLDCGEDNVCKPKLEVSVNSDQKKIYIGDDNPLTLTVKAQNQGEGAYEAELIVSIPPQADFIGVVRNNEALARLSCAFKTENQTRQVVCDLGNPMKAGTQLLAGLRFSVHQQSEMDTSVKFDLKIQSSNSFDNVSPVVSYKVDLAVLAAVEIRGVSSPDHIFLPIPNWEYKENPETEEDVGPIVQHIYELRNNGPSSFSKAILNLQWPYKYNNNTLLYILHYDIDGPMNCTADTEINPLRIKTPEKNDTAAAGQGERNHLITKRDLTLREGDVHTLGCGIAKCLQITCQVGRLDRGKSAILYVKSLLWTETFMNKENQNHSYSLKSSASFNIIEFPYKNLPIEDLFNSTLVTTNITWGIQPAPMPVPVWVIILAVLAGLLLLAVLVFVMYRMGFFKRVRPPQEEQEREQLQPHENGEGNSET
T2 sequence (Q9Z0T9 22-787, chain 2 of 2): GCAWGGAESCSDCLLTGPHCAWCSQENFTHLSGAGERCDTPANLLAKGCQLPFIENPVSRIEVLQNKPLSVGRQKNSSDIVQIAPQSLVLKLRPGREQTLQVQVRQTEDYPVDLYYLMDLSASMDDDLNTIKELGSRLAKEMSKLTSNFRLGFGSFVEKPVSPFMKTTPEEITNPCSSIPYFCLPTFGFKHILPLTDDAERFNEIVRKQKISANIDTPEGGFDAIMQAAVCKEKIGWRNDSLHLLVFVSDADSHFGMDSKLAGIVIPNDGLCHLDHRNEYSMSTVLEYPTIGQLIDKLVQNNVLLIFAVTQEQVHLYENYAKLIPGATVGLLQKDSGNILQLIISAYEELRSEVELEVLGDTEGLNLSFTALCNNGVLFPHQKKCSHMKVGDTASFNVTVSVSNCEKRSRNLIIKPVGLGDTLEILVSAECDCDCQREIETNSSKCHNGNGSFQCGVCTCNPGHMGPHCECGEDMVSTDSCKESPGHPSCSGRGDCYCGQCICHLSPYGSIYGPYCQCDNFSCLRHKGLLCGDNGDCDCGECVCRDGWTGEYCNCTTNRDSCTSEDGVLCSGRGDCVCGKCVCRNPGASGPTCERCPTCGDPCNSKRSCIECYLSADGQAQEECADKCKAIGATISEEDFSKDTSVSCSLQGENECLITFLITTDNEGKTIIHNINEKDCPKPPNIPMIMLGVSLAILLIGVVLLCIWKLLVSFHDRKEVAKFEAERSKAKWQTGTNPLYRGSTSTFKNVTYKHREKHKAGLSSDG

For B1, in the experiment with 6.3G9, the “IC50 (read off the curve)” value is approximately 50 pM.
Take B2: the figures for the IC50 in experiment [1] and in experiment [4] were 0.051 µg/mL and 0.155 µg/mL, respectively. Moreover, the “PAI-1 luciferase IC50” value in experiment [2] stood at 0.7 µg/mL. In addition, in experiment [3], the concentration for a half-maximal effect (EC50) was found to be 0.013 µg/mL.
For the molecule B3, the IC50 in experiment [1] worked out at 0.03 µg/mL; in experiment [4], 0.113 µg/mL. Also, the “PAI-1 luciferase IC50” value in experiment [2] was 0.25 µg/mL. The EC50 in experiment [3] turned out to be 0.0042 µg/mL.

For orientation: IC50 means the midpoint of a concentration-inhibition curve. The term EC50 denotes the concentration needed to bring the measured effect to its halfway point.
